Experimental findings from patent US10487348B2, “3-alpha-hydroxysteroid dehydrogenase mutants and process for the preparation of ursodeoxycholic acid” (Pharmazell GmbH, priority 2014, dated 2019) are described below.

Entries after “also recorded” stand apart in the source; their conditions may differ. Like-named read-outs stand apart in the source and are kept apart here.

For data set [1], the target named is 3α-HSDH; substrate DHCA (Comamonas testosteroni, UniProt P80702, R34N). Format: biochemical. The following applies: versus wild type.
In data set [2] the test system is 3α-HSDH; substrate DHCA. It is filed as biochemical, Comamonas testosteroni.
Data set [3] concerns the target 3α-HSDH; substrate DHCA (Comamonas testosteroni, UniProt P80702, L68A/R34N). It is filed as biochemical. The following applies: purified enzyme.
Data set [4] has as its system 3α-HSDH; substrate DHCA. It is filed as biochemical, Comamonas testosteroni. To be noted: substrate DHCA; FIGS. 8A-8B; listed as dual mutant.
The target of data set [5] is T1, 3α-HSDH; substrate DHCA (Comamonas testosteroni, UniProt P80702).
T1 sequence (P80702 whole entry, looked up): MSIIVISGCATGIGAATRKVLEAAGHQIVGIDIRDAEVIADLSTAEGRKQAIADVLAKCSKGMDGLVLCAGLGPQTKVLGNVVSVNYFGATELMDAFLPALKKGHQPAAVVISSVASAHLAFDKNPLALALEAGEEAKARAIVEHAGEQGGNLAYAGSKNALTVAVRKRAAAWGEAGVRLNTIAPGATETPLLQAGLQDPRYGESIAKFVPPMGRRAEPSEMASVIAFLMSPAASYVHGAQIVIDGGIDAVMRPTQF
Format: biochemical.

Substrate in data set [6]: C[C@H](CCC(=O)O)[C@H]1CC[C@H]2[C@@H]3C(=O)C[C@@H]4CC(=O)CC[C@]4(C)[C@H]3CC(=O)[C@]12C
Put plainly: Kinetics of 3α-HSDH [T188G], N-terminal His tag. It is filed as biochemical, Comamonas testosteroni. To be noted: other: Table 14, substrate DHCA, apparent values, pH 8.0. The procedure: The activity of the 3α-HSDH and of the mutants was determined using a photometric assay, where the decrease in absorbance was measured at 340 nm over a period of 30 seconds.
The targeted exchange of amino acid radicals was performed analogously to Example 2B.
Following cultivation and expression, the cells were harvested, and the specific activities of the cell-free crude extracts were determined at substrate concentrations of 10 mM DHCA. The enzyme variants where the activity measurements with crude extract enzyme were most promising were purified by means of Ni-NTA chromatography, and their kinetic constants were determined by measurements with different DHCA concentrations of between 10 μM and 20 mM. In addition, an expression check by means of SDS PAGE was carried out for all mutants.

[7] abbreviates: Table 4, variants modified at position 34.
Setting [8] is: Table 9, crude extract, dual mutant position 34 and 68.
[9] abbreviates: Table 7, variants modified at position 68.

B1: 3α-HSDH [R34N] (protein)
chain: MSIIVISGCATGIGAATRKVLEAAGHQIVGIDINDAEVIADLSTAEGRKQAIADVLAKCSKGMDGLVLCAGLGPQTKVLGNVVSVNYFGATELMDAFLPALKKGHQPAAVVISSVASAHLAFDKNPLALALEAGEEAKARAIVEHAGEQGGNLAYAGSKNALTVAVRKRAAAWGEAGVRLNTIAPGATETPLLQAGLQDPRYGESIAKFVPPMGRRAEPSEMASVIAFLMSPAASYVHGAQIVIDGGIDAVMRPTQFLEHHHHHH
As to B1, the “activity improved (best mutant at position 34)” value in data set [1] is “approx. 3 fold”. For the same molecule, in data set [2] (setting [7]), the Specific activity amounted to 3.0 U/mg and the Volumetric activity is listed as 58.0 U/ml.

B2: 3α-HSDH [R34N/L68A] (protein)
chain: MSIIVISGCATGIGAATRKVLEAAGHQIVGIDINDAEVIADLSTAEGRKQAIADVLAKCSKGMDGLVACAGLGPQTKVLGNVVSVNYFGATELMDAFLPALKKGHQPAAVVISSVASAHLAFDKNPLALALEAGEEAKARAIVEHAGEQGGNLAYAGSKNALTVAVRKRAAAWGEAGVRLNTIAPGATETPLLQAGLQDPRYGESIAKFVPPMGRRAEPSEMASVIAFLMSPAASYVHGAQIVIDGGIDAVMRPTQFLEHHHHHH
With B2, in data set [2] (setting [8]), the Specific activity is recorded as 4.5 U/mg and the Volumetric activity is recorded as 139.7 U/ml. In addition, the “increase of the maximum activity over the wild type” value in data set [3] is “approx. 25%”. Also, in data set [4], the “activity compared with the wild type with His tag (courses of Michaelis-Menten kinetics)” value is listed as “not being quite as active as the wild type at low substrate concentrations; also recorded: markedly higher activities than the wild-type enzyme at higher substrate concentrations”.

B3: 3α-HSDH (WT): Comamonas testosteroni 3α-HSDH wild type, C-terminally extended by His-Tag LEHHHHHH (SEQ ID NO: 5) (protein)
chain: MSIIVISGCATGIGAATRKVLEAAGHQIVGIDIRDAEVIADLSTAEGRKQAIADVLAKCSKGMDGLVLCAGLGPQTKVLGNVVSVNYFGATELMDAFLPALKKGHQPAAVVISSVASAHLAFDKNPLALALEAGEEAKARAIVEHAGEQGGNLAYAGSKNALTVAVRKRAAAWGEAGVRLNTIAPGATETPLLQAGLQDPRYGESIAKFVPPMGRRAEPSEMASVIAFLMSPAASYVHGAQIVIDGGIDAVMRPTQFLEHHHHHH
modifications: C-terminal His-tag LEHHHHHH
Take B3: the Specific activity in data set [2] (setting [7]), in data set [2] (setting [9]) and in data set [2] (setting [8]) was 2.1 U/mg each time. For the same molecule, the figures for the Volumetric activity in data set [2] (setting [7]), in data set [2] (setting [9]) and in data set [2] (setting [8]) were 38.0 U/ml, 44.9 U/ml and 44.9 U/ml, respectively. Also, the substrate excess inhibition result in data set [5] is “no longer demonstrates the pronounced substrate excess inhibition”.

B4: Comamonas testosteroni 3α-HSDH mutant [T188G], N-terminal hexahistidine tag (Comamonas testosteroni; T188G) (protein)
chain: MSIIVISGCATGIGAATRKVLEAAGHQIVGIDIRDAEVIADLSTAEGRKQAIADVLAKCSKGMDGLVLCAGLGPQTKVLGNVVSVNYFGATELMDAFLPALKKGHQPAAVVISSVASAHLAFDKNPLALALEAGEEAKARAIVEHAGEQGGNLAYAGSKNALTVAVRKRAAAWGEAGVRLNTIAPGAGETPLLQAGLQDPRYGESIAKFVPPMGRRAEPSEMASVIAFLMSPAASYVHGAQIVIDGGIDAVMRPTQF
Broadly, the Km is the concentration of substrate that gives half-maximal velocity. Usually kcat stands for the maximal rate divided by the concentration of active sites. B4: in data set [6], the Km is 1458 ± 182.6 µM, the Vmax is 20.3 ± 0.8 U/mg and the kcat amounted to 9.6 s⁻¹.

B5: Crude extract (without His tag): non-tagged wild-type 3α-HSDH of Comamonas testosteroni (SEQ ID NO: 4) (protein, listed as Comamonas testosteroni)
chain: MSIIVISGCATGIGAATRKVLEAAGHQIVGIDIRDAEVIADLSTAEGRKQAIADVLAKCSKGMDGLVLCAGLGPQTKVLGNVVSVNYFGATELMDAFLPALKKGHQPAAVVISSVASAHLAFDKNPLALALEAGEEAKARAIVEHAGEQGGNLAYAGSKNALTVAVRKRAAAWGEAGVRLNTIAPGATETPLLQAGLQDPRYGESIAKFVPPMGRRAEPSEMASVIAFLMSPAASYVHGAQIVIDGGIDAVMRPTQF
As for B5, the “DHCA concentration at which maximum activity is reached” value in data set [5] was “approximately 1 mM”.
